Experimental data from article doi:10.1101/2021.08.10.455837.

Target: human HBEGF (human) (UniProt Q99075)
UniProt Q99075, sequence (Q99075 20-208): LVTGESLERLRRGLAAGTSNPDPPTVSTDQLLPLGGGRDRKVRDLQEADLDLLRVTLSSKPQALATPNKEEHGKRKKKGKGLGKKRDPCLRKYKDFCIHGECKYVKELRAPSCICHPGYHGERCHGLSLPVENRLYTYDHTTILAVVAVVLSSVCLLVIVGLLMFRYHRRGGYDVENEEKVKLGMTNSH

## Diphtheria toxin (from UniProt P00588 33-567) (natural protein)
  EC50 of toxicity (dose titration) on WT ARN8 cells (basal levels of HBEGF): 0.026 nM
